Read-outs that look alike come from different tables or passages of the source. Each block holds one molecule with its values, some of them ahead of it.
Tests used:
[1] = target: E. coli DnaB replicative helicase, wild type (E. coli) (UniProt P0ACB0); assay: cryo-EM structure
[2] = target: E. coli DnaB replicative helicase, wild type (E. coli) (UniProt P0ACB0); assay: cryo-EM structure; remark: listed apart in the source
[3] = target: DnaC (with DnaB^KAEA and M13 ssDNA) (Escherichia coli, UniProt P0AEF0); assay: coupled pyruvate kinase/lactate dehydrogenase ATPase assay, A340; type: biochemical; conditions: DnaB K236A/E262A and M13 ssDNA present; 10 mM MgCl2, pH 7.5, 37 °C
cryo-EM structure = target: the molecule itself; assay: cryo-EM structure

stoichiometry N [1]: 6
stoichiometry N [2]: 6
Molecule: E. coli DnaB replicative helicase, wild type (from UniProt P0ACB0 1-471) (enzyme)

Molecule: Nc1ncnc2c1ncn2[C@@H]1O[C@H](COP(=O)(O)OP(=O)(O)OP(=O)(O)O)[C@@H](O)[C@H]1O [ATP]
Km [3]: DnaC follows apparent Michaelis-Menten behavior

B1: E. coli DnaC helicase loader, wild type (enzyme, UniProt P0AEF0 1-245, looked up)
chain: MKNVGDLMQRLQKMMPAHIKPAFKTGEELLAWQKEQGAIRSAALERENRAMKMQRTFNRSGIRPLHQNCSFENYRVECEGQMNALSKARQYVEEFDGNIASFIFSGKPGTGKNHLAAAICNELLLRGKSVLIITVADIMSAMKDTFRNSGTSEEQLLNDLSNVDLLVIDEIGVQTESKYEKVIINQIVDRRSSSKRPTGMLTNSNMEEMTKLLGERVMDRMRLGNSLWVIFNWDSYRSRVTGKEY
stoichiometry N (cryo-EM structure): 6

Source: article PMC6450724 (Molecular cell, 2019)
